Reference: PMC9482650, “Quantitative fragmentomics allow affinity mapping of interactomes” (Nature Communications, 2022)

T1: HTRA3, P83110
T1 sequence (P83110 354-453, limits assumed, looked up): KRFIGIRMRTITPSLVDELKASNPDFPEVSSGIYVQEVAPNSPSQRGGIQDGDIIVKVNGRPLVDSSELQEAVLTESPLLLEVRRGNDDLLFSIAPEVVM

T2: TX1BP3, O14907
T2 sequence (O14907 10-122, limits assumed, looked up): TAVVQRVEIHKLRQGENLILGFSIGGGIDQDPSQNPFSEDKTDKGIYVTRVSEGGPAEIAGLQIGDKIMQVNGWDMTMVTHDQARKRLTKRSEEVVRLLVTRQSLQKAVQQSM

T3: LIN7C, Q9NUP9
T3 sequence (Q9NUP9 88-185, limits assumed, looked up): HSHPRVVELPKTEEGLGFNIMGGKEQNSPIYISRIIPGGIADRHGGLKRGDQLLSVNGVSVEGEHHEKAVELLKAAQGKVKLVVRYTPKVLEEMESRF

T4: SNTA1, Q13424
T4 sequence (Q13424 82-180, limits assumed, looked up): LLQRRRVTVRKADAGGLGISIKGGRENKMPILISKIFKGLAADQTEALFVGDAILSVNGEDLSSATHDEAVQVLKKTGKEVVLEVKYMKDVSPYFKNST

T5: DFNB31_2, Q9P202
T5 sequence (Q9P202 274-371, limits assumed, looked up): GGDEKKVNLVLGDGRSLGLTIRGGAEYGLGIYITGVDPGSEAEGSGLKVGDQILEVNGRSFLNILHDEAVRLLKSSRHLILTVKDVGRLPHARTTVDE

T6: PDZD2_2, O15018
T6 sequence (O15018 329-429, limits assumed, looked up): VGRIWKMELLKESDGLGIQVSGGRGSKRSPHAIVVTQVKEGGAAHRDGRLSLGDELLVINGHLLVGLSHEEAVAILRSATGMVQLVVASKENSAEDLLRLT

T7: MPDZ_5, O75970
T7 sequence (O75970 695-796, limits assumed, looked up): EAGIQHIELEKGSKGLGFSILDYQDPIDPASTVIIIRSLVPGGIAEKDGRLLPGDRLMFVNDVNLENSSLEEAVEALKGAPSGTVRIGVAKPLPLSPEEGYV

T8: GRIP1_7, Q9Y3R0
T8 sequence (Q9Y3R0 999-1096, limits assumed, looked up): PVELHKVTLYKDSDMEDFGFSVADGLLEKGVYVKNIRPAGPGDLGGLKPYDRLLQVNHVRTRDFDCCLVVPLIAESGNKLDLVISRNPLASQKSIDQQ

T9: DLG3_1, Q92796
T9 sequence (Q92796 125-227, limits assumed, looked up): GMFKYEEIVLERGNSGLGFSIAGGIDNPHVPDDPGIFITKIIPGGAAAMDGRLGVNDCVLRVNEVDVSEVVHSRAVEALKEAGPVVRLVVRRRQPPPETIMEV

T10: PARD3B_1, Q8TEW8
T10 sequence (Q8TEW8 196-299, limits assumed, looked up): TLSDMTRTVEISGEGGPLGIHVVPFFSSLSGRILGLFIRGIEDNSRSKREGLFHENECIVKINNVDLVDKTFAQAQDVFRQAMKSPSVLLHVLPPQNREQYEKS

T11: LNX2_3, Q8N448
T11 sequence (Q8N448 463-564, limits assumed, looked up): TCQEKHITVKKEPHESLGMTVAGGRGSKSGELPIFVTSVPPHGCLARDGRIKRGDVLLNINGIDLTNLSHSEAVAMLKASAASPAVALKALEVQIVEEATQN

T12: ARHGEF11, O15085
T12 sequence (O15085 42-136, limits assumed, looked up): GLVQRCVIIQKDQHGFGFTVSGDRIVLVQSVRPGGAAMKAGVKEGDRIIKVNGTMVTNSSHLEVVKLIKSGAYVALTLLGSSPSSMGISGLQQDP


Experiments:
Experiment in all cases: holdup assay
Set-up in all cases: key: below the threshold = too weak to quantify, mostly under pKd 3.1 to 4
Conditions in all cases: plain residues with an end cap or a label only (N-terminal biotin on a linker: ado-ado)
HTRA3, P83110 = target: T1, HTRA3, P83110
LAP2, Q96RT1 = target: LAP2, Q96RT1
Chain of LAP2, Q96RT1 (Q96RT1 other isoform, or with tags, fused parts or gaps): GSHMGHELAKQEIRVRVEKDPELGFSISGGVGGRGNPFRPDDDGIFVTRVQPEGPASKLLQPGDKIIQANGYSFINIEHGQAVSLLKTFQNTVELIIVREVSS

Inadl_1, Q8NI35 = target: Inadl_1, Q8NI35
Chain of Inadl_1, Q8NI35 (Q8NI35 113-229): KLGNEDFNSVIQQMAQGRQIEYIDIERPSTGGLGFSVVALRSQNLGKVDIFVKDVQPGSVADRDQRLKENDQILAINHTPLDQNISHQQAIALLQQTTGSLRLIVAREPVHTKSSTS

NHERF2_2, Q15599 = target: NHERF2_2, Q15599
Chain of NHERF2_2, Q15599 (Q15599 142-238): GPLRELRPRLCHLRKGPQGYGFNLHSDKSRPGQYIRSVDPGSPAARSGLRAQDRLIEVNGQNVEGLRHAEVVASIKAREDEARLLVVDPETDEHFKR

TX1BP3, O14907 = target: T2, TX1BP3, O14907
GORASP2, Q9H8Y8 = target: GORASP2, Q9H8Y8
Inadl_3, Q8NI35 = target: Inadl_3, Q8NI35
Chain of Inadl_3, Q8NI35 (Q8NI35 359-469): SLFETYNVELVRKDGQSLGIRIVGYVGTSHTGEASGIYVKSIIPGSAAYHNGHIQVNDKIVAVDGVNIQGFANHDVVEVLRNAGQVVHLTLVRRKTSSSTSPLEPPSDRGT

FRMPD2_2, Q68DX3 = target: FRMPD2_2, Q68DX3
Chain of FRMPD2_2, Q68DX3 (Q68DX3 944-1038): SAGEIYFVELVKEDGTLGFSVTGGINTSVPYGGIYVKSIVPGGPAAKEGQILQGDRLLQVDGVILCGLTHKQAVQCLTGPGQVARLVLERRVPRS

LIN7C, Q9NUP9 = target: T3, LIN7C, Q9NUP9
SNTA1, Q13424 = target: T4, SNTA1, Q13424
DFNB31_2, Q9P202 = target: T5, DFNB31_2, Q9P202
PDZD2_2, O15018 = target: T6, PDZD2_2, O15018
Inadl_5, Q8NI35 = target: Inadl_5, Q8NI35
Chain of Inadl_5, Q8NI35 (Q8NI35 673-780): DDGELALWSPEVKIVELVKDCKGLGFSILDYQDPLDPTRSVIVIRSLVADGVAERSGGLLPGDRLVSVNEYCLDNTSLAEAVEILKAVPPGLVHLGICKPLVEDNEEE

GRID2IP_2, A4D2P6 = target: GRID2IP_2, A4D2P6
Chain of GRID2IP_2, A4D2P6 (A4D2P6 272-370): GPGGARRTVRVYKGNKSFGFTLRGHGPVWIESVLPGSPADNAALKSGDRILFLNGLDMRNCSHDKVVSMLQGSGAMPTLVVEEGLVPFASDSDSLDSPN

MPDZ_5, O75970 = target: T7, MPDZ_5, O75970
GRIP1_7, Q9Y3R0 = target: T8, GRIP1_7, Q9Y3R0
SCRIB_2, Q14160 = target: SCRIB_2, Q14160
Chain of SCRIB_2, Q14160 (Q14160 857-960): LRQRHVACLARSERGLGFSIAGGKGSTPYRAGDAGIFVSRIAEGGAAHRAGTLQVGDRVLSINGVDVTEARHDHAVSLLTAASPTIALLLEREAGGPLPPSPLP

DLG3_1, Q92796 = target: T9, DLG3_1, Q92796
TJP1_2, Q07157 = target: TJP1_2, Q07157
Chain of TJP1_2, Q07157 (Q07157 181-274): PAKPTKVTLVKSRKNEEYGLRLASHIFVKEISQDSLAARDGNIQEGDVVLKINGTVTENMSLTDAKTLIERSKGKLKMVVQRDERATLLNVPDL

FRMPD4, Q14CM0 = target: FRMPD4, Q14CM0
Chain of FRMPD4, Q14CM0 (Q14CM0 67-160): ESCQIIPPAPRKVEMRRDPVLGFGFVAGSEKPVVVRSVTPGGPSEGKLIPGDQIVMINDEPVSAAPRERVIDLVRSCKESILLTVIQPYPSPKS

GOPC, Q9HD26 = target: GOPC, Q9HD26
PARD3B_1, Q8TEW8 = target: T10, PARD3B_1, Q8TEW8
LNX2_3, Q8N448 = target: T11, LNX2_3, Q8N448
ARHGEF11, O15085 = target: T12, ARHGEF11, O15085

Row | Binder | pKd (HTRA3, P83110) | pKd (LAP2, Q96RT1) | pKd (Inadl_1, Q8NI35) | pKd (NHERF2_2, Q15599) | pKd (TX1BP3, O14907) | pKd (GORASP2, Q9H8Y8) | pKd (Inadl_3, Q8NI35) | pKd (FRMPD2_2, Q68DX3) | pKd (LIN7C, Q9NUP9) | pKd (SNTA1, Q13424) | pKd (DFNB31_2, Q9P202) | pKd (PDZD2_2, O15018) | pKd (Inadl_5, Q8NI35) | pKd (GRID2IP_2, A4D2P6) | pKd (MPDZ_5, O75970) | pKd (GRIP1_7, Q9Y3R0) | pKd (SCRIB_2, Q14160) | pKd (DLG3_1, Q92796) | pKd (TJP1_2, Q07157) | pKd (FRMPD4, Q14CM0) | other results
1 | ATKDKKITTV [EXOC4, Q96A65] | below the threshold | 3.54 | below the threshold | 3.6 | 3.91 | 4.64 | below the threshold | below the threshold | below the threshold | 4.26 | below the threshold | 3.88 | below the threshold | 3.98 | below the threshold | 3.53 | 3.49 | 4.59 | 3.73 | 3.55 | pKd (GOPC, Q9HD26): 3.87; pKd (PARD3B_1, Q8TEW8): below the threshold; pKd (LNX2_3, Q8N448): 3.48; pKd (ARHGEF11, O15085): 4.38
2 | GDSSRKEYFI [GYPC, P04921] | 4.64 | 3.62 | 4.12 | below the threshold | below the threshold | 4.61 | 4.2 | below the threshold | below the threshold | below the threshold | below the threshold | 4.28 | 5.16 | below the threshold | 4.66 | 3.76 | 3.69 | below the threshold | below the threshold | below the threshold | pKd (GOPC, Q9HD26): below the threshold; pKd (PARD3B_1, Q8TEW8): 4.39; pKd (LNX2_3, Q8N448): below the threshold; pKd (ARHGEF11, O15085): below the threshold
3 | GSQSQVETEA [FKBP4, Q02790] | below the threshold | below the threshold | below the threshold | below the threshold | below the threshold | below the threshold | below the threshold | below the threshold | below the threshold | below the threshold | below the threshold | below the threshold | below the threshold | 3.68 | below the threshold | below the threshold | below the threshold | below the threshold | below the threshold | below the threshold | pKd (GOPC, Q9HD26): below the threshold; pKd (PARD3B_1, Q8TEW8): below the threshold; pKd (LNX2_3, Q8N448): below the threshold; pKd (ARHGEF11, O15085): below the threshold
4 | FHSIKQSTAV [CRHR1, P34998] | below the threshold | 3.85 | below the threshold | below the threshold | 4.11 | below the threshold | below the threshold | 3.7 | below the threshold | 3.71 | below the threshold | 4.48 | below the threshold | 4.34 | below the threshold | below the threshold | 4.18 | 4.04 | below the threshold | below the threshold | pKd (GOPC, Q9HD26): 4; pKd (PARD3B_1, Q8TEW8): below the threshold; pKd (LNX2_3, Q8N448): below the threshold; pKd (ARHGEF11, O15085): 5

Further lines, with some results ahead:

Row | pKd (HTRA3, P83110) | pKd (LAP2, Q96RT1) | pKd (Inadl_1, Q8NI35) | pKd (NHERF2_2, Q15599) | pKd (TX1BP3, O14907) | pKd (GORASP2, Q9H8Y8) | pKd (Inadl_3, Q8NI35) | pKd (FRMPD2_2, Q68DX3) | pKd (LIN7C, Q9NUP9) | pKd (SNTA1, Q13424) | pKd (DFNB31_2, Q9P202) | pKd (PDZD2_2, O15018) | pKd (Inadl_5, Q8NI35) | pKd (GRID2IP_2, A4D2P6) | pKd (MPDZ_5, O75970) | pKd (GRIP1_7, Q9Y3R0) | pKd (SCRIB_2, Q14160) | pKd (DLG3_1, Q92796) | pKd (TJP1_2, Q07157) | pKd (FRMPD4, Q14CM0) | Binder | other results
5 | below the threshold | below the threshold | below the threshold | 4.49 | 4.12 | below the threshold | below the threshold | below the threshold | 3.65 | 4.47 | below the threshold | below the threshold | below the threshold | 4.21 | below the threshold | below the threshold | 4.28 | below the threshold | below the threshold | 4.49 | SRPHTNETSL [MCC, P23508] | pKd (GOPC, Q9HD26): 3.9; pKd (PARD3B_1, Q8TEW8): 3.7; pKd (LNX2_3, Q8N448): below the threshold; pKd (ARHGEF11, O15085): 4.3
6 | below the threshold | below the threshold | below the threshold | below the threshold | 3.97 | below the threshold | below the threshold | below the threshold | 4.03 | below the threshold | below the threshold | below the threshold | below the threshold | below the threshold | below the threshold | below the threshold | below the threshold | below the threshold | below the threshold | below the threshold | VKQYADVEGF [HNRNPK, P61978;P61978-2] | pKd (GOPC, Q9HD26): below the threshold; pKd (PARD3B_1, Q8TEW8): below the threshold; pKd (LNX2_3, Q8N448): below the threshold; pKd (ARHGEF11, O15085): below the threshold
